Measured values taken from US20240384250A1, “FIBROBLAST GROWTH FACTOR 23 MODULATING COMPOUNDS” (THE UAB RESEARCH FOUNDATION, priority 2021, published 2024).
Entries after “also recorded” stand apart in the source; their conditions may differ.

T1: FGF23 binding to FGFR4 (Homo sapiens, UniProt P22455+Q9GZV9)
T1 construct: Fc-coupled FGFR ectodomains were immobilized on protein A/G beads; purchased R&D Systems 2604FG025/CF or 2629FG025/CF; 685FR050
T1 sequence (Q9GZV9 25-251): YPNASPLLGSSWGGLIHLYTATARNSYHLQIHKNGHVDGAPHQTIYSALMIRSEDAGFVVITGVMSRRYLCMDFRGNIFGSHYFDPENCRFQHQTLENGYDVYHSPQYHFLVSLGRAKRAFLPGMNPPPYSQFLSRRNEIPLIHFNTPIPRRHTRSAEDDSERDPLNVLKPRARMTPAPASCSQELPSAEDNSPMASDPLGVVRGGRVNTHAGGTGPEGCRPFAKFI
T1 sequence (P22455 22-369 limits assumed): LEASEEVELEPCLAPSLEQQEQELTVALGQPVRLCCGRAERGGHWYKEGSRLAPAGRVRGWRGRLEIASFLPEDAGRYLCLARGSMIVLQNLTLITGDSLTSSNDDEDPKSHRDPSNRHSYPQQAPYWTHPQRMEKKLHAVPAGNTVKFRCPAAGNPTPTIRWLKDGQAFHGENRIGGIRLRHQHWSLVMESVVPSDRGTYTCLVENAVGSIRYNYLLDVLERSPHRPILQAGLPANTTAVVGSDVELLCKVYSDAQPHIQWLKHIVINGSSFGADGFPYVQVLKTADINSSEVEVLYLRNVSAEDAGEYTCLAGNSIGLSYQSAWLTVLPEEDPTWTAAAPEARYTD


Tests used:
[1] = target: T1, FGF23 binding to FGFR4; experiment: Plate-based binding, FGF23 coated, then sKL, heparin or PBS, then Fc-FGFR; conditions: with sKL, with heparin 0.4 USP, or alone
Experimental: Proteins were coated on 96-well plates (MaxiSorp; 439454, Thermo Fisher Scientific), and proteins were added to wells in 100 μl of enzyme-linked immunosorbent assay (ELISA) coating buffer (E107, Bethyl Laboratories) with a lid placed overtop and incubated at 4° C. overnight. Plates were washed 5× with 350 μl of assay buffer (50 mM Tris [pH 7.4], 200 mM NaCl, 0.01% Tween 20) on a 50 TS microplate washer (BioTek). Plates were blocked for 1 hour in 200 μl of assay buffer with 0.5% BSA. Plates were washed as before, and proteins were incubated on plates in 100 μl of assay buffer with 0.5% BSA. Proteins or heparin was incubated in orders described in the respective figure legends. Assays using FLAG-tag-based detection were incubated with anti-FLAG coupled to HRP at 1:20,000, and assays using Fc detection were incubated with anti-human Fc coupled to HRP at 1:10,000. Plates were washed as above, and 100 μl of 3,3′,5,5′-tetramethylbenzidine (TMB) substrate (E102, Bethyl Laboratories) was added for 15 to 20 minutes until positive wells developed a dark blue color. Reactions were stopped with ELISA stop solution (E115, Bethyl Laboratories) and analyzed using the Synergy HI plate reader (BioTek) at 450 nm wavelength. […] As a control to remove background absorbance values, wells were coated with an equal amount of BSA to match the amount of protein coated in experimental wells and treated the same as experimental wells. To study the effects of sKL on the binding between paracrine FGFs and FGFRs, plates were run as above except coated with paracrine FGFs. Fc-FGFR1 was preincubated with sKL or vehicle for 60 minutes, and then the combination was added to wells and the assay was run as before.

[2] = test system: phosphorylated ERK in HEK293T cells; experiment: ERK phosphorylation in serum-starved HEK293 cells (Western blotting); type: cell-based, human
Experimental: The sample (20 μl) was loaded onto Mini-PROTEAN TGX Precast Gel 4-20% for experiments with <9 samples (4568094, Bio-Rad) or Criterion TGX Precast Gel 4-20% (5678094, Bio-Rad) for experiments with >9 samples. Gels were run in 1× Tris/Glycine/SDS buffer (1610732, Bio-Rad) at 150 V and stopped when the sample dye reached the end of the gel. Gels were removed and electrotransferred via a semi-dry cassette (1703940, Bio-Rad) in I× Tris/Glycine buffer (1610734, Bio-Rad) with 20% methanol. Gels were transferred onto polyvinylidene diflouride membranes (IPVH00010, Millipore) at 20 V for 1 hour. Membranes were then blocked in 5% dried milk with 0.5% Tween 20 diluted in Tris-buffered saline (TBST; pH 7.5) for 1 hour and probed with antibodies against specific antigens at 1:1000 in TBST with 5% dried milk. Blots were washed 3× for 5 minutes in TBST and probed with HRP-coupled secondary antibodies against specific species at 1:10,000 in TBST with 5% dried milk. Membranes were imaged on the SRX-101A X-ray film developer (Konica Minolta).
To determine the cellular activity of paracrine FGFs, the activation/phosphorylation of ERK in HEK293 cells after treatment was studied. HEK293 cells were seeded in 6-well plates in DMEM (26140079, Gibco) supplemented with I× Pen/Strep (15140122, Gibco) and 10% FBS (26140079, Gibco) and grown for 48 hours. Upon reaching 80% confluence, cells were serum starved overnight in DMEM and 1× Pen/Strep without FBS. The medium was changed, and cells were treated with sKL at 2 μg/ml or vehicle (sKL elution buffer: 25 mM Tris ph 8.0, 500 mM NaCl) for 15 minutes. Cells were then treated with various FGFs at 1.1 nM for 10 minutes. Cells were lysed in 200 μl of RIPA with the addition of a protease inhibitor (11836153001, Roche) and phosphatase inhibitors (P5726 and P0044, Sigma-Aldrich) for 30 minutes. The mixture was then centrifuged at 20,000 g for 60 minutes to remove all cell debris. One hundred microliters of 1× Laemmli sample buffer (1610737, Bio-Rad) with 1.42 M 2-mercaptoethanol was added, and samples were boiled for 5 minutes. Twenty microliters of samples was loaded onto 12% SDS-PAGE gels and analyzed using Western blotting for total and phosphorylated ERK.

Molecule	binding of coated FGF23 to Fc-FGFR4 [1]	ERK phosphorylation induced by FGF ([2]; FGF 1.1 nM for 10 minutes, absence of sKL)	phospho-ERK levels in cells treated with FGF2 ([2]; sKL 2 μg/ml 15 minutes before FGF2)	phospho-ERK levels in cells treated with FGF5 ([2]; sKL 2 μg/ml 15 minutes before FGF5)	ERK phosphorylation in cells incubated with FGF23 ([2]; sKL 2 μg/ml 15 minutes before FGF23)	phospho-ERK levels in cells treated with FGF8b ([2]; sKL 15 minutes before FGF8b)
FGF23: recombinant fibroblast growth factor 23 protein from R&D Systems (protein) YPDTSPLLGSNWGSLTHLYTATARTSYHLQIHRDGHVDGTPHQTIYSALMITSEDAGSVVITGAMTRRFLCMDLHGNIFGSLHFSPENCKFRQWTLENGYDVYLSQKHHYLVSLGRAKRIFQPGTNPPPFSQFLARRNEVPLLHFYTVRPRRHTRSAEDPPERDPLNVLKPRPRATPVPVSCSRELPSAEEGGPAASDPLGVLRRGRGDARGGAGGADRCRPFPRFV	low affinity; also recorded: weak affinity	had no effect	–	–	–	–
sKL: recombinant soluble α-klotho ectodomain, mouse aa 35-982 and human aa 34-981, FLAG- or Strep/His-tagged, purified from HEK293 cells (protein, left off: small tags and cut ends, recombinant soluble α-klotho ectodomain, mouse aa 35-982 and human aa 34-981, FLAG- or Strep/His-tagged, purified from HEK293 cells) EPGDGAQTWARFSRPPAPEAAGLFQGTFPDGFLWAVGSAAYQTEGGWQQHGKGASIWDTFTHHPLAPPGDSRNASLPLGAPSPLQPATGDVASDSYNNVFRDTEALRELGVTHYRFSISWARVLPNGSAGVPNREGLRYYRRLLERLRELGVQPVVTLYHWDLPQRLQDAYGGWANRALADHFRDYAELCFRHFGGQVKYWITIDNPYVVAWHGYATGRLAPGIRGSPRLGYLVAHNLLLAHAKVWHLYNTSFRPTQGGQVSIALSSHWINPRRMTDHSIKECQKSLDFVLGWFAKPVFIDGDYPESMKNNLSSILPDFTESEKKFIKGTADFFALCFGPTLSFQLLDPHMKFRQLESPNLRQLLSWIDLEFNHPQIFIVENGWFVSGTTKRDDAKYMYYLKKFIMETLKAIKLDGVDVIGYTAWSLMDGFEWHRGYSIRRGLFYVDFLSQDKMLLPKSSALFYQKLIEKNGFPPLPENQPLEGTFPCDFAWGVVDNYIQVDTTLSQFTDLNVYLWDVHHSKRLIKVDGVVTKKRKSYCVDFAAIQPQIALLQEMHVTHFRFSLDWALILPLGNQSQVNHTILQYYRCMASELVRVNITPVVALWQPMAPNQGLPRLLARQGAWENPYTALAFAEYARLCFQELGHHVKLWITMNEPYTRNMTYSAGHNLLKAHALAWHVYNEKFRHAQNGKISIALQADWIEPACPFSQKDKEVAERVLEFDIGWLAEPIFGSGDYPWVMRDWLNQRNNFLLPYFTEDEKKLIQGTFDFLALSHYTTILVDSEKEDPIKYNDYLEVQEMTDITWLNSPSQVAVVPWGLRKVLNWLKFKYGDLPMYIISNGIDDGLHAEDDQLRVYYMQNYINEALKAHILDGINLCGYFAYSFNDRTAPRFGLYRYAADQFEPKASMKHYRKIIDSNGFPGPETLERFCPEEFTVCTECSFFHTRKS	highest FGF23-sKL affinities; also recorded: increased; also recorded: the strongest	–	decreased phospho-ERK levels; also recorded: did not occur	decreased phospho-ERK levels; also recorded: did not occur	induced ERK phosphorylation; also recorded: increased pERK levels	did not occur
